Data as given in publication PMC10925265 (bioRxiv, 2024).

B1: calpain-3 (C129A) ΔNS&IS1 (enzyme, human, UniProt P20807-1 1-821, looked up)
chain: MISRNFPIIGVKEKTFEQLHKKCLEKKVLYVDPEFPPDETSLFYSQKFPIQFVWKRPPEICENPRFIIDGANRTDICQGELGDAWFLAAIACLTLNQHLLFRVIPHDQSFIENYAGIFHFQFWRYGEWVDVVIDDCLPTYNNQLVFTKSNHRNEFWSALLEKAYAKLHGSYEALKGGNTTEAMEDFTGGVAEFFEIRDAPSDMYKIMKKAIERGSLMGCSIDTIIPVQYETRMACGLVRGHAYSVTGLDEVPFKGEKVKLVRLRNPWGQVEWNGSWSDRWKDWSFVDKDEKARLQHQVTEDGEFWMSYEDFIYHFTKLEICNLTADALQSDKLQTWTVSVNEGRWVRGCSAGGCRNFPDTFWTNPQYRLKLLEEDDDPDDSEVICSFLVALMQKNRRKDRKLGASLFTIGFAIYEVPKEMHGNKQHLQKDFFLYNASKARSKTYINMREVSQRFRLPPSEYVIVPSTYEPHQEGEFILRVFSEKRNLSEEVENTISVDRPVKKKKTKPIIFVSDRANSNKELGVDQESEEGKGKTSPDKQKQSPQPQPGSSDQESEEQQQFRNIFKQIAGDDMEICADELKKVLNTVVNKHKDLKTHGFTLESCRSMIALMDTDGSGKLNLQEFHHLWNKIKAWQKIFKHYDTDQSGTINSYEMRNAVNDAGFHLNNQLYDIITMRYADKHMNIDFDSFICCFVRLEGMFRAFHAFDKDGDGIIKLNVLEWLQLTMYA

Assays:
[1] = target: calpain-3 (C129A) ΔNS&IS1 (human) (UniProt P20807); test: SEC-MALS
[2] = target: the molecule itself; test: SEC-MALS
[3] = target: the molecule itself; test: native gel or EMSA
[4] = target: the molecule itself; test: SEC-SAXS

Molecule | stoichiometry N (titin per calpain-3) [1] | stoichiometry N [2] | stoichiometry N [3] | stoichiometry N [4]
titin N2A region I81-I83 fragment (without His-tag) (domain or fragment) | 2 | – | – | –
B1 | – | 5 | 2 | 6
